# Test results from US8673594B2, “Methods for stimulating nervous system regeneration and repair by regulating arginase I and polyamine synthesis” (Research Foundation of City University of New York, priority 2000, dated 2014).
# Entries after “also recorded” stand apart in the source; their conditions may differ.
# B1: BDNF: Brain-derived neurotrophic factor, Trk-family neurotrophin (protein, UniProt P23560 19-247, looked up)
# Neurotrophic factor BDNF …: APMKEANIRGQGGLAYPGVRTHGTLESVNGPKAGSRGLTSLADTFEHVIEELLDEDQKVRPNEENNKDADLYTSRVMLSSQVPLEPPLLFLLEEYKNYLDAANMSMRVRRHSDPARRGELSVCDSISEWVTAADKKTAVDMSGGTVTVLEKVPVSKGQLKQYFYETKCNPMGYTKEGCRGIDKRHWNSQCRTTQSYVRALTMDSKKRIGWRFIRIDTSCVCTLTIKRGR
# B2: GDNF: glial cell line-derived neurotrophic factor (protein, UniProt P39905 78-211, looked up)
# Glial cell line-derived …: SPDKQMAVLPRRERNRQAAAANPENSRGKGRRGQRGKNRGCVLTAIHLNVTDLGLGYETKEELIFRYCSGSCDAAETTYDKILKNLSRNRRLVSDKVGQACCRPIAFDDDLSFLDDNLVYHILRKHSAKRCGCI
# Key:
# [1] = system: cerebellar neurons on MAG-expressing CHO cells; test: Neurite outgrowth of cerebellar neurons on MAG-expressing or control CHO cells; assay type: cell-based; conditions: for block of inhibition of neurite growth by MAG after priming: neurons primed overnight with neurotrophin 200 ng/ml, then transferred to CHO monolayers
# Procedure: FIG. 2: Improved Axonal Growth on MAG Induced By Elevating cAMP Levels is Transcription-Dependent. (A) Isolated cerebellar neurons at a density of 20,000 neurons per well were plated onto a monolayer of either MAG-expressing Chinese hamster ovary (CHO) cells (striped bars) or control CHO cells (black bars) and cultured overnight before being fixed and immunostained for GAP43 to visualize the neurites. The length of the longest neurite per neuron, from 180-200 neurons, was measured and results are the average length+/−SEM. Where indicated, dibutyryl cAMP (dbcA) at 1 mM in the presence or absence of the inhibitor of transcription, 5,6-dichloro-1-b-D-ribofuranosylbenzimidazole (DRB) at 5 μM, was added to each culture. (B) Cerebellar neurons (1×10^6) were plated onto poly-L-lysine and cultured overnight with brain-derived neurotrophic factor (BDNF) at 200 ng/ml, (termed priming) in the presence or absence of DRB at 5 μM, before being transferred to the CHO cell monolayers.
# FIG. 6: An Ornithine Decarboxylase (ODC) Inhibitor Abrogates the Blocking Effect of dbcAMP on the Inhibition of Axonal Outgrowth by MAG and Myelin. […] The longest neurite from at least 180-200 neurons were measured. Results are shown as the mean neurite length+/−SEM.
# After further incubation, neurons were fixed and immunostained for GAP43. The longest neurite from each neuron for 180-200 neurons were measured. Results are shown as the mean neurite length+/−SEM.
# FIG. 8: An Inhibitor Of ODC Blocks The Priming Effects Of GDNF On The Inhibition By MAG. […] After further incubation, neurons were fixed and immunostained for GAP43. The longest neurite from each neuron for 180-200 neurons were measured. Results are shown as the mean neurite length±SEM.
# Primed neurons were transferred to either MAG-expressing or control CHO cells (A) or a substrate of CNS myelin (B) for further incubation. Neurons were then fixed and immunostained for GAP43. The longest neurite from each neuron was measured for 180-200 neurons. Results are shown as the percentage of control. […]
# Neurons were isolated essentially as described in Doherty at al., Nature, 343, pp. 464-66 (1990); Neuron, 5, pp. 209-19 (1990); and Kleitman at al., Culturing Nerve Cells, pp. 337-78, MIT Press, Cambridge, Mass./London, England (G. Banker and K Goslin, Eds.) (1991). Briefly, for animals up to nine days of age, the cerebellum, from two animals were removed and combined in 5 ml of 0.025% trypsin in PBS, triturated, and incubated for a further 10 minutes (min.) at 37° C. Trypsinization was stopped by addition of 5 ml DMEM containing 10% fetal calf serum (FCS) and cells were centrifuged at 800 rpm for 6 min. […] For older DRG neurons, ganglia were removed from two animals and incubated in 5 ml of Sat medium containing 0.025% trypsin and 0.15% collagenase type I (Worthington) for 30 min. at 37° C. The ganglia were triturated with a fire-polished Pasteur pipette. Trypsinization was stopped by adding 5 ml of DMEM containing 10% FCS, centrifuged at 800 rpm for 6 min, and resuspended in 2 ml of SAT (DeBellard et al., 1996). Cells were counted with a Coulter counter.
# Chinese hamster ovary (CHO) cells deficient in the dihydrofolate reductase (dhfr) gene (Urlaub and Chasin, Proc. Natl, Acad, Sci. 77, pp. 4216-20 (1980)) were transfected with a MAG-cDNA expression plasmid with the dhfr gene and the L-MAG cDNA, cells with multiple copies of dbfr were selected by growing in increasing concentrations of methotrexate, and the expression of MAG by individual transfected CHO cell lines characterized as described in Mukhopadhyay et al., Neuron, 13, pp. 757-67 (1994), which is incorporated herein by reference. The MAG-expressing transfected CHO cell line) (“CHO-MAG2”) in that publication was deposited on Jun. 27, 1996 with the American Type Culture Collection (ATCC) (Rockville, Md.) according to the provisions of the Budapest Treaty, and was assigned the ATCC accession number designated: ATCC CRL-12145. […]
# [2] = system: Arg I RNA in cerebellar neurons; test: Arginase I RNA level in cerebellar neurons by RT-PCR and quantitative PCR; assay type: cell-based; conditions: overnight dbcAMP 1 mM or BDNF 200 ng/ml; P<0.005
# Procedure: FIG. 4: Priming Neurons With Brain Derived Neurotrophic Factor (BDNF) or Dibutyryl (db) cAMP Up-Regulates Arginase I RNA Levels In Cerebellar Neurons. RNA isolated from cerebellar neurons without treatment (lane 2), from cerebellar neurons exposed overnight to either BDNF (200 ng/ml) (lane 3) or dbcAMP (1 mM) (lane 4), was reverse, transcribed and subjected to (A) semi-quantitative PCR; or (B) quantitative PM; using primers specific for arginase I. As a positive control, RNA isolated from liver tissue was subjected to RT PCR and quantitative PCR procedures using the same primers ((A), lane 1; (B), “Liver”)
# To determine whether elevated cAMP levels causes an up-regulation of arginase expression, cerebellar neurons were primed with neurotrophins (BDNF) or dbcAMP (Example 1), and RNA and protein was extracted from primed neurons (Example 2). The extracted RNA was used as a template for reverse transcription and PCR amplification using primers specific for the gene encoding the enzyme arginase I (“Arg I”), an isoform of arginase abundant in liver tissue but barely detectable in other tissues.
# Cerebellar neurons were primed with neurotrophins (BDNF, GDNF) or dbcAMP according to the procedures in Example 1. […]
# Finally, ArgI amplified cDNA samples were detected by electrophoretic separation on a 1% agarose gel and staining with ethidium bromide.
Molecule,"block of inhibition of neurite growth by MAG ([1]; agent added directly to the co-culture (dbcAMP 1 mM), overnight)",increase in amount of Arg I RNA by quantitative PCR [2],block of inhibition of neurite growth by MAG after priming [1]
"CCCC(=O)Nc1ncnc2c1ncn2[C@@H]1O[C@@H]2COP(=O)(O)O[C@H]2[C@H]1OC(=O)CCC [dbcAMP, dibutyryl cAMP]",blocks inhibition of neuronal growth by MAG; also recorded: blocks the inhibition of neurite growth by MAG,about 50%,
B1,,about 50%,blocks inhibition of neuronal growth by MAG; also recorded: blocked the inhibition by MAG
B2,,,overcomes inhibition of regeneration by MAG and myelin
